Laboratory results as given in the DeepSol protein solubility set.

Assay: soluble on expression in E. coli; label from the status in PepcDB or PDB records

Sequence | soluble on expression in E. coli
MKKLYGVIGNPIGHSMSPDIHNASLKDLGLDGHYHAFKVEENDLEDAVKGIRALGVQGINVTVPHKVSIMDYLDHIDESAKVLGAVNTVRREGDKLVGYNTDGEGFVKSLMKVLDKPISELSFLMIGAGGAARAIFTTFVRNTPKKFDICNRTLEKAKRLTEATPSFHNKEVLSIKEAEERLEQYDVIIHTTSVGMYPNVDDVPLSLQRAASSAVVCDIVYNPIQTALLKEASQKGLKTLDGVGMFVEQAALSFQLWTGQEPNIEKMRSIVIGKLGGTECLEHHHHHH | soluble
MKKPPLNICILRLSAIGDVCHTLAVIQAIQRQYPDIKISWIIGKTEAHLMQGIHNVELIPYDKKSGWQGIITLWKQLRNKRFDFLLNMQTALRASMLSLGIKATHKIGFNKDRAREMQSLFVDSQVEMTASPHVLDGQMMFAKAIGVTDLTPRWHLPVSSADLAYSNQFLNPHTQNVVIAPCSSKTEKDWDIASNAEIAKWLTDQNINVIIVGSPTDYECATANQIKQLAPKVINTTGKTTLKQLAALIKQVDLVIAPDTGVAHIATTQHTRVIGLYAIHNPRRTAPYSDQANVISVYDQAILDYYGTSWDKLAWATKAKSKKGEKLMQRITVEEVKQKIVETLNLKL | not soluble
MKKQKSFPMSAYEDLLGKITAPTITVENWEGILAFCDMINNDFEGSKTGIKSLRKRLNNRDPHVVLLAISVLDSCWANCEERFRKEVSSAQFINELKALCTSSQRQVAEKMRLTVQKWVDTECKTEQSLSLIVTLHKNLVADGYSFVVDDPKSKTKAIDAKFANDPNYVGSAQEEEAIAKAIAASLADAEKQEKAKKSTSTMYPSAKASSPAVQTNSNIPEKNVRALYDFEAAESNELSFVAGDIITITDESNPHWWTGRIGTQQGLFPSSFVTNQLDDLKSKETDSSQKAPEVVASINEAILVRCLQVLHECDPTGERQDPEDLAQLEAASYAQGNLIDAHLASIDRQSNSLAQIDVAIRDVLALYDDAIQKGGFQHQSQGMYQQPMQQYNYQQPPNRAYYPPTGPVQQQQPQQYPPQHYPAPGAQPQYACPPNSVPQPQQQQQQWPAPSSQPQQY | not soluble
MKKSHYSVIIVGGGQAGLAISYLLKQESIDHVIFEKNQIGHAWRNQRWDSFCLVTPNWQCRLPGFPYAGGDDQGFMLKDEIVQYLEDYAASFQAPILEGVEVSKLSQRTDAFEVITSQGIYTADQVVVATGGYHTPKIAAIAKKLPPHIVQLHSVDYKNPETLPDRILLVGTGQSGCQIAEDLHLAGKTVHLATGSAPRSPRRYRGRDVVEWLELMGHYDLPIDEHPQKEMVRHKTNHYLTGRDGGREIDLRQFALEGMHLYGRLKDIDGNQILFADNLKENLDQADATAARIKQSIDEYIAKNQLDAPIEAPYQPVWEPTSIPLTLNIDEIDAVIWSTGFNFNYAWVDVPVFNSMGEPLHNRGVTNVAGLYFLGLPWLYTWGSGRFSGVARDAEYLAEKIRETLPANQINPCTVALEHHHHHH | not soluble
MKKTQSEPDQEAIRKIEELSQDLIEGLESYGARLLSVYAHGGILFSEQSEFLHQLVGGRRERIPLTFGTIASTIYSDRVIFGKETIEIRHESNERFAGMFGWKEYPSKTRPGMTDGLLTAPFEFILTQSFVFKSKAAASVIMGRKQNQMINAADRASSQIEALDEALDDLESNRFVLGEHHLSLAVFANHPKALAEYLSKARAHLTNGGAVIAREDLGLEAAWWAQLPGNFSYRARSGAITSRNFAALSPFHSFPIGKLEGNVWGTAVALLKTQAGSPYYFNFHYGDLGNTFVCGPSGSGKTVIVNFLLAQLQKHNPTMVFFDKDQGAEIFVRAGGGKYKPLKNGQPTGIAPLKGMEYTEKNKVFLRNWVLKLVTAEGQTVTEEERQDIAKAIDALGNLPHAQRSLSALQLFFDNTSKEGIAIRLQRWLKGNDLGWVFDNDQDDLNLDSQFIGYDMTDFLDNEEIRRPLMMYLFNRILDLIDGRRIIIVIDEFWKALEDDSFKAFAQDRLKTIRKQNGMMLFATQSPKDALNSTIAHTIIEQCPTQIFFPNQKANYKDYVEDFKLTEREFELIQSELSRESRRFLIKQGQSSVVAELNLRGMNDEIAVLSGTTKNIELVNQIISEYGADPDIWLPIFHQRRENQLEHHHHHH | soluble
MKKVFIPINTKIPVERQFPNRVPIWGNYEFIISTKEPEQEYDYVVVLDDIEYSLRLMCCKQNICLFTGEPPYVKLYPRKYLNQFGHVYTCQSSVLKRDNACLSYPALPWMLYYNFYNDKQKEELLIDYDFLKNRPTLQRKNKICLFTSNKKISKGHIERIKFALKLQEEMPDLIDIYGSGFTNVDYKYEVMVQYKYAIVIENCSYPYYWTEKLADTFLSGCYPIYFGDPHIGDFFSKEEMAVIDIRNFDESKQTIKKIIDNNVYEKQYENICHARDKILDKYNMFSLISSTLDSIPAKLDKEKLLLSPMRLSVFDRIRNRIYRLFYLEHHHHHH | not soluble
MKKVGKSTFKFENCPIISDCFTIVGKKEGEGPLGLFFDMVVEDEYAGQKSWELAEGKLLNIAISKLIQKSGFTPDEVDLILSGDLLNQLTSSHFAARDLNIPFIGLYGACSTFALSVGLACVFVDGGFAKNIIAATSSHFCSAEKQFRYPLELGCQRPPTAQWTVTGAASFLIKPEDGTQKPKITHFTVGKILDYGIKDSNNMGACMAPAAFDTITTHLEDTKRDFTYYDIIVTGDLGYVGRKLLEELFKKEGKTLSFELLDCGILMFDQKTQDTGAGASGCAASACIFGGYFYKLMLQKTFKRILIVPTGALLSSSTVQLGESIPVIAHALSIEIELEHHHHHH | not soluble
MKKVTAMLFSMAVGLNAVSMAAKAKASEEQETDVLLIGGGIMSATLGTYLRELEPEWSMTMVERLEGVAQESSNGWNNAGTGHSALMELNYTPQNADGSISIEKAVAINEAFQISRQFWAHQVERGVLRTPRSFINTVPHMSFVWGEDNVNFLRARYAALQQSSLFRGMRYSEDHAQIKEWAPLVMEGRDPQQKVAATRTEIGTDVNYGEITRQLIASLQKKSNFSLQLSSEVRALKRNDDNTWTVTVADLKNGTAQNIRAKFVFIGAGGAALKLLQESGIPEAKDYAGFPVGGQFLVSENPDVVNHHLAKVYGKASVGAPPMSVPHIDTRVLDGKRVVLFGPFATFSTKFLKNGSLWDLMSSTTTSNVMPMMHVGLDNFDLVKYLVSQVMLSEEDRFEALKEYYPQAKKEDWRLWQAGQRVQIIKRDAEKGGVLRLGTEVVSDQQGTIAALLGASPGASTAAPIMLNLLEKVFGDRVSSPQWQATLKAIVPSYGRKLNGDVAATERELQYTSEVLGLNYDKPQAADSTPKPQLKPQPVQKEVADIAL | not soluble
MKLEIGYNHPFEIRKERYESDHVCNFSVLYISDLHLTVFSKDICTRLSKCIQELNPTIIILGGDYIDCRNGWDYLSTFFKFLSARKNVFSIAGNHDYFYGIDEIKKLIESNNIHWLENQSAVVNIQEYNILLTGNNETQSSIPADFNILCLHKPVSLDAFKIPYHIAFAGHLHGCQCVFWQNENGLYPGRFFYTFNFLRRQVKNCLYLISKGLGDTLPIRFNCKKDIIFVEIKNNSNKLEHHHHHH | not soluble
MKLEVTPKAQQWFKEETGVQPETGIRFFGKIYGKTPVHDGFSIAMSVEAPDEPMIKENLDGITYFIEETDDWFFKGYDLIVDYDEKNDEPRYQFEANQEDLTK | not soluble
MKLFRVVKRGYYISYAILDNSTIIRLDEDPIKALMRYSENKEVLGDRVTGIDYQSLLKSFQINDIRITKPIDPPEVWGSGISYEMARERYSEENVAKILGKTIYEKVYDAVRPEIFFKATPNRCVGHGEAIAVRSDSEWTLPEPELAVVLDSNGKILGYTIMDDVSARDLEAENPLYLPQSKIYAGCCAFGPVIVTSDEIKNPYSLDITLKIVREGRVFFEGSVNTNKMRRKIEEQIQYLIRDNPIPDGTILTTGTAIVPGRDKGLKDEDIVEITISNIGTLITPVKKRRKIT | soluble
MKLIILDRDGVVNQDSDAFVKSPDEWIALPGSLQAIARLTQADWTVVLATNQSGLARGLFDTATLNAIHDKMHRALAQMGGVVDAIFMCPHGPDDGCACRKPLPGMYRDIARRYDVDLAGVPAVGDSLRDLQAAAQAGCAPWLVQTGNGRKTLAQGGLPEGTRVCEDLAAVAEQLLQEA | soluble
MKLIILEHYSQASEWAAKYIRNRIIQFNPGPEKYFTLGLPTGSTPLGCYKKLIEYYKNGDLSFKYVKTFNMDEYVGLPRDHPESYHSFMWNNFFKHIDIHPENTHILDGNAVDLQAECDAFEEKIKAAGGIELFVGGIGPDGHIAFNEPGSSLVSRTRVKTLAMDTILANARFFDGELTKVPTMALTVGVGTVMDAREVMILITGAHKAFALYKAIEEGVNHMWTVSAFQQHPRTVFVCDEDATLELKVKTVKYFKGLMLVHNKLVDPLYSIKEKETEKSQSSKKPYSD | soluble
MKLKRYEVLADEITASIQAGTRRAGDRLPSVRQTSASRGLSATTVFKAYYLLEARGLIRARDRSGYYVVGKPKALPPELEAGAPAESRRVDVDVSDRVLHVLQLTMRRDVVPFGSAFPHPSLFPHARLARAMASSVAALDPWSSVDDLSAGNTRLRRAIALRYLADGVQVRTEDIVITNGALEALNLCLGAVTRPGDSVLIESPTFYSALQSLERLGLRAIEVPAHPREGIELDALARAIDTHRPAACWLMTNFQNPLGSLMPEDKKRALVELLAARDVPLIEDDVYSELYFGAQRPLPAKAYDESGIVMSCSSFSKSLAPGWRIGWVLGGRYADRILRGKLALSLSTSAPSQAALATYLEHGGYDRHLRQLRQTLEQQRNQVMEAIARHFPPGTRTTHPDGGYFLWVALPPQVDALAVHRAALSLGVSTAPGPIFSVQDRFRHCLRLNYGHPFDARAQDGLATLGKLIARQC | not soluble
MKLLHAIQTHAETYPQTDAFRSQGQSLTYQELWEQSDRAAAAIQKRISGEKKSPILVYGHMEPHMIVSFLGSVKAGHPYIPVDLSIPSERIAKIIESSGAELLIHAAGLSIDAVGQQIQTVSAEELLENEGGSVSQDQWVKEHETFYIIYTSGSTGNPKGVQISAANLQSFTDWICADFPVSGGKIFLNQAPFSFDLSVMDLYPCLQSGGTLHCVTKDAVNKPKVLFEELKKSGLNVWTSTPSFVQMCLMDPGFSQDLLPHADTFMFCGEVLPVSVAKALLERFPKAKIFNTYGPTEATVAVTSVEITNDVISRSESLPVGFAKPDMNIFIMDEEGQPLPEGEKGEIVIAGPSVSRGYLGEPELTEKAFFSHEGQWAYRTGDAGFIQDGQIFCQGRLDFQIKLHGYRMELEEIEFHVRQSQYVRSAVVIPYQPNGTVEYLIAAIVPEEHEFEKEFQLTSAIKKELAASLPAYMIPRKFIYQDHIQMTANGKIDRKRIGEEVLVRSHHHHHH | soluble
MKLLLIGYGNVGKAFRRLLHEKKDNYPILQGVEIAGIITRQGLMVGDKENFSPDKQLTVLEAIDYINPDVIVDMSVPNYKDGEPSVSAYIKALSRKIHVITVNKAPLALKFREIFEVAEKTGAKIGFQGTVMSGTPSINLFRIQPVAEVSRIRGILNGTTNYILTRIYEGLSFNEALKEAKEKGYAEEDPTLDLNGFDAAAKLTILSNFIMNRSLKLGDFKFKGITEITNEEIRRAKSEGKKIKLIAYADNYVVQVSPQIIGPQDPLYYIDGVENALEIQNEIQRIIIRGPGAGPINAAYGALSDLVLLLEGCL | not soluble
MKLLTLNCHSWQEENQIEKIQYLAKVIQEEEYDVIALQEVSQSIQAENVCGNKKKDNFGLLLLEELKALHVKDYNITWDFSHIGYDVYEEGLAIITKHNIIKEDTFFISENEDTTYWKTRKIVSTTIAYNGKDITFYSCHLGWWNDEEESFKGQVDRLMERVDSNKLAFLMGDFNNNARLKGEGYEYMMQKGLYDTYELAIEKDEGTTVQGEIAGWDENKHNLRIDLILCNQSKKVHSSKVIFNGTNRNVISDHFGVEVQLDI | not soluble
